Measured values from patent US8252583B2, “Method for inducing differentiation into cardiomyocytes using G-CSF” (Keiichi Fukuda, priority 2007, dated 2012).

Experiments:
human ES cells = human ES cells treated with 5-azacytidine; rises from 15%; cited from earlier work
G-CSFR expression = G-CSFR expression in EBs derived from ES cells treated with Noggin (RT-PCR, immunostaining); type: cell-based, mouse
Procedure: (§1) In the experiments described below, EB3 cells (kindly provided by Dr. Hitoshi Niwa of Riken, Japan) and R1 cells (kindly provided by Dr. Andrew Nagy of Mount Sinai Hospital, Canada) were used as ES cells. These ES cells were maintained on gelatin-coated plates in Glasgow Minimum Essential Medium (GMEM; Sigma) containing 10% fetal bovine serum, 2 mM L-glutamine, 0.1 mM nonessential amino acid solution, 1 mM sodium pyruvate, 0.1 mM 2-mercaptoethanol and 2000 U/mL leukemia inhibitory factor (LIF) (ESGRO; Chemicon).
Suspension culture was performed as follows to form EBs from ES cells. ES cells were cultured for 3 days on gelatin-coated plates in α-MEM medium containing 10% fetal bovine serum, 2 mM L-glutamine, 0.1 mM nonessential amino acid solution, 1 mM sodium pyruvate, 0.1 mM 2-mercaptoethanol, 2000 U/mL leukemia inhibitory factor and 0.15 μg/ml Noggin (Noggin-Fc, R&D). The ES cells were then dispersed into single cells by treatment with a trypsin solution, and further cultured on uncoated Petri dishes using a three-dimensional culture system in the same differentiation medium as used above (except being free from LIF) to form spheroids, from which EBs (embryoid bodies) were induced. […]

cardiomyocyte markers [1] = assay: Expression of cardiomyocyte markers in ES cell-derived EBs (RT-PCR, immunostaining); type: cell-based, mouse
Description: Next, EBs at day 9 were used and analyzed for the expression of various cardiomyocyte-specific genes by RT-PCR and immunostaining. The cardiomyocyte markers used in RT-PCR were Tbx-5, MEF-2c (muscle enhancement factor-2c), Nkx2.5, GATA-4, βMHC (β myosin heavy chain), MLC-2v (myosin light chain-2v), αMHC (α-myosin heavy chain), BNP (brain natriuretic peptide), ANP (atrial natriuretic peptide) and GAPDH (glyceraldehyde-3-phosphate dehydrogenase). The cardiomyocyte markers used in immunostaining were α-actinin, actin, troponin 1-C, MF20 and ANP. […] Further, to study the optimum concentration of G-CSF, G-CSF was added at various concentrations (0.25, 0.75, 2.5, 7.5, 25, 75 ng/ml) to EBs at day 6, followed by RT-PCR to analyze the expression of each cardiomyocyte marker. It should be noted that EBs prepared at two cell densities, H ([…]) and L (5×10^4 cell/ml), were used in this test. […] To confirm a possibility that the promoting effect of G-CSF treatment to induce myocardial differentiation from ES cells would be mediated by the endogenous G-CSF signaling pathway, anti-G-CSF antibody (R&D systems) was added to medium simultaneously with G-CSF treatment and studied for its effect. EBs at day 6 were treated with G-CSF (7.5 ng/mL) in the presence of anti-G-CSF antibody at various concentrations (0, 1, 3, 9 ng/ml) to study the effect of anti-G-CSF antibody using various cardiomyocyte markers. […] To test the proliferation-promoting effect of G-CSF on ES cell-derived cardiomyocytes, EBs at day 6 were used to prepare G-CSF (7.5 ng/mL)-treated and untreated groups and a G-CSF+nocodazole (0.2 μg/mL)-treated group. […] These three groups were tested for various cardiomyocyte markers by RT-PCR.

cardiomyocyte markers [2] = assay: Cardiomyocyte marker expression in CMES cells (RT-PCR, immunostaining); type: cell-based, common marmoset; conditions: for expression of cardiomyocyte markers (RT-PCR, FIG. 21b): CMES cells
Procedure: (§2) To test the effect of G-CSF on primate cardiogenesis, common marmoset ES (CMES) cells (#20) (Sasaki et al., Stem Cells 23, 1304-1313 (2005)) were used. CMES cells were maintained on a layer of mitotically inactivated mouse embryonic fibroblasts (MEFs) in Knockout DMEM (GIBCO) medium supplemented with 20% Knockout Serum Replacement (KSR; GIBCO), 1 mM L-glutamine (GIBCO), 0.1 mM MEM nonessential amino acids (GIBCO), 0.1 mM β-mercaptoethanol (2-ME; Sigma), 10 ng/ml fibroblast growth factor (bFGF; Invitrogen) and 10 ng/ml human leukemia inhibitory factor (hLIF; Alomone labs). CMES cells were passaged every 5 days to maintain their undifferentiated state.
(§3) Undifferentiated CMES cells were removed from the MEF feeder layer, dissociated into small colonies with a dissociation solution for human and monkey ES cells (ReproCELL. JAPAN), and then cultured to form EBs in suspension culture using HydroCell culture plates (CellSeed, JAPAN) in medium free from bFGF and hLIF.

[3] = system: fetal myocardial proliferation; assay: In vivo effect of G-CSF on cardiogenesis: Phospho-Histon H3 immunostaining of fetal heart sections; parameters: species or system mouse
Procedure: G-CSF (2 ng) was directly administered into the uteri of pregnant mice at 9.0 days of pregnancy. At 13.5 days of pregnancy, fetuses were collected to prepare heart sections, which were then immunostained with Phospho-Histon H3. Phospho-Histon H3 is a dye that is specifically stained during the cell proliferation process.
Next, the labeling index was calculated by the following equation. Labeling index=Phospho-Histon H3 positive nuclei/total nuclei×100(%)

[4] = system: fetal myocardial proliferation; assay: In vivo effect of G-CSF on cardiogenesis: BrdU immunostaining of fetal heart sections; parameters: species or system mouse
Procedure: (§4) At 9.0 days of pregnancy, mice were laparotomized and G-CSF (100 ng/kg) or PBS (phosphate-buffered physiological saline; serving as a control) was directly administered into their uteri. At 9.5 days of pregnancy, the mice were then administered with BrdU (bromodeoxyuridine) by the intraperitoneal route. BrdU is incorporated during DNA synthesis and allows proliferation assessment by immunostaining. At 12.5 days of pregnancy, fetuses were collected to prepare heart sections, which were then analyzed in the same manner as shown for immunostaining in Example 1(2).
Moreover, for quantification of the myocardial proliferation-promoting effect, the BrdU labeling index was calculated by the following equation. It should be noted that wild-type mice were used in this test, which were administered with BrdU at 10.5 days of pregnancy and analyzed at 12.5 days of pregnancy. BrdU labeling index=BrdU positive nuclei/total nuclei×100(%)

[5] = system: common marmoset ES (CMES) cells; assay: Spontaneous beating of common marmoset ES cell-derived EBs; type: cell-based; conditions: G-CSF 2.5 ng/mL added at 4, 6 or 9 days after EB formation
Procedure: as §2, §3
At 4, 6 and 9 days after EB formation, G-CSF (2.5 ng/mL) was added to observe spontaneous beating. The best result was obtained upon addition at 6 days after EB formation, and the difference between G-CSF-treated and untreated groups became evident at 14 days after EB formation.

ES cells = assay: Induction test of cardiomyocyte differentiation: autonomously beating EBs / total EBs; type: cell-based, mouse
Procedure: as §1
Namely, on gelatin-coated dishes, ES cells were maintained in an undifferentiated state in the presence of LIF, and suspension culture was started at day 0 in the absence of LIF to initiate differentiation of the ES cells, whereby EBs which had differentiated into cardiomyocytes were obtained at day 9. At days 5, 6, 7 and 8, G-CSF (2.5 ng/ml) was added and studied for its effect on EB formation. This effect was calculated by dividing the number of autonomously beating EBs by the total number of EBs.
Based on the above results, the optimum concentration of G-CSF was determined. The optimum concentration was studied by comparing the values calculated by dividing the number of autonomously beating EBs by the total number of EBs.

fetal hearts = assay: Hematoxylin-eosin staining of fetal heart sections after G-CSF administration; type: in vivo, mouse; conditions: G-CSF 100 ng/kg into uteri at 9.0 days of pregnancy; fetal hearts at 12.5 days
Procedure: as §4

[6] = system: ES cell-derived cardiomyocytes; assay: BrdU incorporation in ES cell-derived EBs (double immunostaining anti-BrdU / anti-mef2c); type: cell-based, mouse; conditions: EBs at day 6, G-CSF 2.5 ng/mL, BrdU for 18 hours; vs untreated
Procedure: In addition, EBs at day 6 were used to prepare G-CSF (2.5 ng/mL)-treated and untreated groups, which were then incubated with BrdU for 18 hours.

For Nc1ncn([C@@H]2O[C@H](CO)[C@@H](O)[C@H]2O)c(=O)n1 [5-azacytidine], the “percentage of troponin I-positive cells (cardiomyocytes) in EBs” value (human ES cells) is listed as 44%.

With Noggin the “G-CSFR expression in EBs (immunostaining, FIG. 11)” value (G-CSFR expression; Noggin(+) group vs Noggin(−) group, EBs at 6 days after EB formation) was “G-CSFR expression is increased” and the “start of G-CSFR expression in EBs (RT-PCR, FIG. 10)” value (G-CSFR expression; Noggin(+) group, 0.15 μg/ml Noggin for 3 days) was 5 days after EB formation.

For COC(=O)Nc1nc2ccc(C(=O)c3cccs3)cc2[nH]1 [Nocodazole, reference compound], the “effect on G-CSF-increased expression of cardiomyocyte markers (RT-PCR, FIG. 19)” value (cardiomyocyte markers [1]; EBs at day 6, G-CSF 7.5 ng/mL + nocodazole 0.2 μg/mL) was “cancelled the increased expression of the cardiomyocyte markers”.

B1: human G-CSF: G-CSF of human origin used on CMES cells (protein, UniProt P09919 31-207, looked up)
Granulocyte …: TPLGPASSLPQSFLLKCLEQVRKIQGDGAALQEKLVSECATYKLCHPEELVLLGHSLGIPWAPLSSCPSQALQLAGCLSQLHSGLFLYQGLLQALEGISPELGPTLDTLQLDVADFATTIWQQMEELGMAPALQPTQGAMPAFASAFQRRAGGVLVASHLQSFLEVSYRVLRHLAQP
For B1, the “expression of cardiomyocyte markers (RT-PCR, FIG. 21b)” value (cardiomyocyte markers [2]) was “strongly enhance the expression of the cardiomyocyte markers”.

B2: mouse G-CSF: G-CSF of mouse origin used on CMES cells (protein, UniProt P09920 31-208, looked up)
Granulocyte …: VPLVTVSALPPSLPLPRSFLLKSLEQVRKIQASGSVLLEQLCATYKLCHPEELVLLGHSLGIPKASLSGCSSQALQQTQCLSQLHSGLCLYQGLLQALSGISPALAPTLDLLQLDVANFATTIWQQMENLGVAPTVQPTQSAMPAFTSAFQRRAGGVLAISYLQGFLETARLALHHLA
For B2, the “expression of cardiomyocyte markers (RT-PCR, FIG. 21b)” value (cardiomyocyte markers [2]) was “strongly enhance the expression of the cardiomyocyte markers”.

B3: G-CSF: hematopoietic factor, differentiation-inducing factor for granulocyte lineage hematopoietic stem cells; agonist for G-CSF receptor (protein, listed as Homo sapiens)
chain: TPLGPASSLPQSFLLKCLEQVRKIQGDGAALQEKLCATYKLCHPEELVLLGHSLGIPWAPLSSCPSQALQLAGCLSQLHSGLFLYQGLLQALEGISPELGPTLDTLQLDVADFATTIWQQMEELGMAPALQPTQGAMPAFASAFQRRAGGVLVASHLQSFLEVSYRVLRHLAQP
In the case of B3, the “fetal myocardial proliferation (Phospho-Histon H3 immunostaining, FIG. 7)” value ([3]; G-CSF 2 ng into uteri at 9.0 days of pregnancy, fetuses collected at 13.5 days) is reported as “enhance fetal myocardial proliferation”, the “Phospho-Histon H3 labeling index (FIG. 8)” value ([3]; embryonic days 8.5 to 10.5) is reported as “strongly enhance myocardial proliferation” and the “fetal myocardial proliferation (BrdU immunostaining, FIG. 4)” value ([4]; G-CSF 100 ng/kg into uteri at 9.0 days of pregnancy, BrdU i.p. at 9.5 days, fetuses collected at 12.5 days, vs PBS) is reported as “promoted fetal myocardial proliferation”. For the same molecule, the “BrdU labeling index (FIG. 6)” value ([4]; wild-type mice, BrdU at 10.5 days of pregnancy, analyzed at 12.5 days) was “enhance myocardial proliferation”, the “expression of cardiomyocyte markers (RT-PCR and immunostaining, FIG. 15)” value (cardiomyocyte markers [1]; EBs at day 9, G-CSF-treated group) was “all the cardiomyocyte markers showed increased expression levels” and the “expression of contractile proteins, transcription factors and secretory proteins (RT-PCR, FIG. 16)” value (cardiomyocyte markers [1]; G-CSF 0.25 to 25 ng/ml added to EBs at day 6, cell densities H (2×10^3 cell/ml) and L (5×10^4 cell/ml), vs control group) was “increased expression levels”. For the same molecule, the “effect of G-CSF addition on cardiogenesis (spontaneous beating, FIG. 21a)” value [5] was “highest at 6 days after EB formation”, the “cardiac troponin I- and Nkx2.5-positive areas (immunostaining, FIG. 21c)” value (cardiomyocyte markers [2]; CMES-derived EBs, G-CSF-treated vs untreated) was “enhanced cardiac troponin I- and Nkx2.5-positive areas” and the “effect on EB formation (autonomously beating EBs / total EBs, FIG. 14)” value (ES cells; G-CSF 2.5 ng/ml added at days 5, 6, 7 or 8, result for addition at day 6) was “greatest effect on EB formation”. For the same molecule, the “optimum timing of G-CSF administration” value (ES cells; G-CSF 2.5 ng/ml, days 5, 6, 7 and 8 compared) was 6 days, the “optimum concentration of G-CSF (autonomously beating EBs / total EBs, FIG. 17)” value (ES cells; added to EBs at day 6) was 0.75 ng/mL and the “heart section morphology (hematoxylin-eosin, FIG. 5a)” value (fetal hearts) was “extended trabecular layer”. For the same molecule, the “cell proliferation of cardiomyocytes (BrdU labeling index, FIG. 20)” value [6] was “promote cell proliferation of cardiomyocytes”.
